Source: the supplement of paper PMC10065799, “High-throughput profiling of sequence recognition by tyrosine kinases and SH2 domains using bacterial peptide display” (eLife, 2023)

Tests used:
[1] = system: AncSZ; assay: phosphorylation enrichment, bacterial display (enrichment ratio); higher = better substrate or ligand; peptides without Tyr show the background
[2] = target: EPHB1 (UniProt P54762); assay: as above
[3] = target: EPHB2 (UniProt P29323); assay: as above
[4] = target: FGFR1 (UniProt P11362); assay: as above
[5] = target: FGFR3 (UniProt P22607); assay: as above
[6] = system: Fer (mouse); assay: as above
[7] = target: Fes (UniProt P07332); assay: as above
[8] = target: Fyn (UniProt P06241); assay: as above
[9] = target: Hck (UniProt P08631); assay: as above
[10] = target: Jak2 (UniProt O60674); assay: as above
[11] = target: MERTK (UniProt Q12866); assay: as above
[12] = system: c-Abl (mouse); assay: as above
[13] = system: c-Src; assay: as above
[14] = target: Grb2 SH2 (UniProt P62993); assay: SH2 binding enrichment of the phosphorylated peptide, bacterial display (enrichment ratio); higher = better substrate or ligand; peptides without Tyr show the background
[15] = target: SHP2-C SH2; assay: as above
[16] = target: c-Src SH2; assay: as above
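Wherever SH2 binding enrichment of the phosphorylated peptide, bacterial display is given: peptide library displayed on the E. coli surface as eCPX fusions, selected cells deep-sequenced, score is each peptide's frequency after selection divided by its frequency in the input.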
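Wherever phosphorylation enrichment, bacterial display is given: 11-residue human phosphosite peptides and single-mutation variants displayed on the E. coli surface, counted by deep sequencing, each peptide's frequency after selection divided by its frequency in the unselected input library; frequency after pTyr selection over input frequency; kinase dosed for 20-30% of maximal phosphorylation in three min.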

Sequence of Fyn (P06241 whole entry, looked up): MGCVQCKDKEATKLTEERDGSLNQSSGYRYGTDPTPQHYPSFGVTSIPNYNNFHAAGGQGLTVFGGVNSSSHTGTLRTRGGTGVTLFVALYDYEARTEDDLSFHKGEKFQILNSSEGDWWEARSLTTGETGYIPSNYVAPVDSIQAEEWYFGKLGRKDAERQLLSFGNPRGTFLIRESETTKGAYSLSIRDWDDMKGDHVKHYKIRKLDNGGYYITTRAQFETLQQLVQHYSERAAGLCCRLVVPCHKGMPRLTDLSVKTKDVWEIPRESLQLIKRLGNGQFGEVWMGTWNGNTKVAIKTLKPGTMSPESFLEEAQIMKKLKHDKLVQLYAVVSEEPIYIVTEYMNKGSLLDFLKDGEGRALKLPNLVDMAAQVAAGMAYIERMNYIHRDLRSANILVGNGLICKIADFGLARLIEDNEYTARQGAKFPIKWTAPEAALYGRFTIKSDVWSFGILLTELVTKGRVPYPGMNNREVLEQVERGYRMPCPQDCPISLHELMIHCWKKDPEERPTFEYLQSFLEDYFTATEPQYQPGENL
Sequence of EPHB2 (P29323 whole entry, looked up): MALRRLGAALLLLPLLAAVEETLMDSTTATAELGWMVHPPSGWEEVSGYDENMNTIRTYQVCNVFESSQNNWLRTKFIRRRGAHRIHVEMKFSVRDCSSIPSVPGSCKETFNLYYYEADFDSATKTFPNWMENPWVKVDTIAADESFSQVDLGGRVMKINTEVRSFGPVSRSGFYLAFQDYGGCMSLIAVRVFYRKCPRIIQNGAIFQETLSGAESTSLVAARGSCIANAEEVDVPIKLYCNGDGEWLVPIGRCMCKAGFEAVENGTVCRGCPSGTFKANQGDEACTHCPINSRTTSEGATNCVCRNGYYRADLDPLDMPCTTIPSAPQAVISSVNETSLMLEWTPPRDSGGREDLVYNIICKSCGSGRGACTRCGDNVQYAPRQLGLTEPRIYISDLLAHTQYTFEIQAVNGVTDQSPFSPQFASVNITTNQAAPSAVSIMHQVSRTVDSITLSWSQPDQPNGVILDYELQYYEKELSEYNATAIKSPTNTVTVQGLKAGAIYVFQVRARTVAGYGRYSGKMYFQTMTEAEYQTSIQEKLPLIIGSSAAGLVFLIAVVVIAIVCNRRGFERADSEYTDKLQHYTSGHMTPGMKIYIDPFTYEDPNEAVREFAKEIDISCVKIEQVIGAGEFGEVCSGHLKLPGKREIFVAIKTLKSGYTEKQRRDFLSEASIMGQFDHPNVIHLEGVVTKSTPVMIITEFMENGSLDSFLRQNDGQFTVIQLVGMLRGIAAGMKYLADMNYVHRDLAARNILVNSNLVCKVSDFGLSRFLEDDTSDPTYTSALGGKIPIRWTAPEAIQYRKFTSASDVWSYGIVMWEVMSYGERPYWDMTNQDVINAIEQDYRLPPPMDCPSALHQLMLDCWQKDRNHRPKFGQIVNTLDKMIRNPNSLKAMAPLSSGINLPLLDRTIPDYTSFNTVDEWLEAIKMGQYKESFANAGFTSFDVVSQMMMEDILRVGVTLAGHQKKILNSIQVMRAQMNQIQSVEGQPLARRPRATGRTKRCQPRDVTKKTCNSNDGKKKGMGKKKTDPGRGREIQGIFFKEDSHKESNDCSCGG
Sequence of Hck (P08631 whole entry, looked up): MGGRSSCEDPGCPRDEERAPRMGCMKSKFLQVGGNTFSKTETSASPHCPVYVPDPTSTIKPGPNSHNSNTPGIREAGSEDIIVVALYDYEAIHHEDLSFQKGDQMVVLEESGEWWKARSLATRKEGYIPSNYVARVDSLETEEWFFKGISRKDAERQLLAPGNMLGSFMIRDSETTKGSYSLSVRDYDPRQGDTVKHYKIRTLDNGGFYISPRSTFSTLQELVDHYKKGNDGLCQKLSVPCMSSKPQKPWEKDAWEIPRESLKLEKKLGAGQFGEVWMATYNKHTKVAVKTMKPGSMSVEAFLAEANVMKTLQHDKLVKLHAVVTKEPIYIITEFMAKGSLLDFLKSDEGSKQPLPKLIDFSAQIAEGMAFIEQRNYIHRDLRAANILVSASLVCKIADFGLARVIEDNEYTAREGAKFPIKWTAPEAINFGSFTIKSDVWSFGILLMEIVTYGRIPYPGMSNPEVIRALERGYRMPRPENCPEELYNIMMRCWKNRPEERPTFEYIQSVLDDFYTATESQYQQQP
Sequence of FGFR3 (P22607 whole entry, looked up): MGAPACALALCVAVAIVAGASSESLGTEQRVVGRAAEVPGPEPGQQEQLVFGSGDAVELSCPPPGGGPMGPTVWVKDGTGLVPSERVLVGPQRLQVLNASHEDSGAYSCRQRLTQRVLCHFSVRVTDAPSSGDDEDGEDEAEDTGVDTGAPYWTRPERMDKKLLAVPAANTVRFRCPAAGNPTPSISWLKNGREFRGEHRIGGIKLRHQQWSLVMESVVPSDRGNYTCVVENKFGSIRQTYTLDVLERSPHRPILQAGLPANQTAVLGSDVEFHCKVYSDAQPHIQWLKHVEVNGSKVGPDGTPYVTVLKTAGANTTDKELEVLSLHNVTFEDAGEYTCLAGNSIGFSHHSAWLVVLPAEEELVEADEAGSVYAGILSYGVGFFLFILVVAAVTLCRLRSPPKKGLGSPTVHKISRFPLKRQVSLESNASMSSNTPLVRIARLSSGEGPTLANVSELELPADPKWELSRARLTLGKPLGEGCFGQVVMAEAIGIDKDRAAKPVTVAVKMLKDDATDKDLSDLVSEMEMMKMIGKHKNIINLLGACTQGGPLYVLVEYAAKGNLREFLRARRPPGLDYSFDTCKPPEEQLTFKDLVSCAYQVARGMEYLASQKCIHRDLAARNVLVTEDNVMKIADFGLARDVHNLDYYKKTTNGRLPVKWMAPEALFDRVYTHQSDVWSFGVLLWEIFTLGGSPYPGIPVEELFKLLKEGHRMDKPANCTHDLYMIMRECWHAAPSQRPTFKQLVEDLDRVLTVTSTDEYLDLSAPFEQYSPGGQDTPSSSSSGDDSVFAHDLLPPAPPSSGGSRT
Sequence of Jak2 (O60674 whole entry, looked up): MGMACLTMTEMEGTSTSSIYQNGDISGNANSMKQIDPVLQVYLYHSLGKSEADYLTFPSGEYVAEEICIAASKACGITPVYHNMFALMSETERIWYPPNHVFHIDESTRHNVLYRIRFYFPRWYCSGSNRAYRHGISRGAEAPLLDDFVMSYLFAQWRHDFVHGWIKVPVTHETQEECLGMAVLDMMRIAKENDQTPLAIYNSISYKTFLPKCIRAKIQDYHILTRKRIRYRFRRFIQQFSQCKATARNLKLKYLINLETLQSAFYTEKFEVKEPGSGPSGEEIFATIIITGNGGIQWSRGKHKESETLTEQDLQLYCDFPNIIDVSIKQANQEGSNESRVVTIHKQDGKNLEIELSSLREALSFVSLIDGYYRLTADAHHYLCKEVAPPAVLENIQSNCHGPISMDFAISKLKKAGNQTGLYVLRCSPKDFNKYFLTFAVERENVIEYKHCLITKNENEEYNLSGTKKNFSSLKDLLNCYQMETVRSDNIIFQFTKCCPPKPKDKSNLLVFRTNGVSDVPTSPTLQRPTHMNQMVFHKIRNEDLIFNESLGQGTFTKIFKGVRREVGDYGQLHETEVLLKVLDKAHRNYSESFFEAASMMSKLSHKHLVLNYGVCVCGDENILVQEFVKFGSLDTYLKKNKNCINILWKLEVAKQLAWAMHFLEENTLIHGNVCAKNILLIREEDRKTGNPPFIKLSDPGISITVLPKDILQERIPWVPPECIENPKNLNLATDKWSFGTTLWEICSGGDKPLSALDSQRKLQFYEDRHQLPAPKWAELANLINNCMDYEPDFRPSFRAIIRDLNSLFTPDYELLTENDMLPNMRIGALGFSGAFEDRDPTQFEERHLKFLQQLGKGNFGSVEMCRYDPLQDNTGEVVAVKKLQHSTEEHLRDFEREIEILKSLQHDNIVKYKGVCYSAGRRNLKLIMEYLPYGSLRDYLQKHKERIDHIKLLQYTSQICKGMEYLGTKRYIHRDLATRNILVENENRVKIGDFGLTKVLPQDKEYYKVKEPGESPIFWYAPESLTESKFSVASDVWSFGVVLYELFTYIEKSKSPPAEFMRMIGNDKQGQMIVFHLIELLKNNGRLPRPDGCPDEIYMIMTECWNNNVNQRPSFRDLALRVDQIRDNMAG
Sequence of EPHB1 (P54762 whole entry, looked up): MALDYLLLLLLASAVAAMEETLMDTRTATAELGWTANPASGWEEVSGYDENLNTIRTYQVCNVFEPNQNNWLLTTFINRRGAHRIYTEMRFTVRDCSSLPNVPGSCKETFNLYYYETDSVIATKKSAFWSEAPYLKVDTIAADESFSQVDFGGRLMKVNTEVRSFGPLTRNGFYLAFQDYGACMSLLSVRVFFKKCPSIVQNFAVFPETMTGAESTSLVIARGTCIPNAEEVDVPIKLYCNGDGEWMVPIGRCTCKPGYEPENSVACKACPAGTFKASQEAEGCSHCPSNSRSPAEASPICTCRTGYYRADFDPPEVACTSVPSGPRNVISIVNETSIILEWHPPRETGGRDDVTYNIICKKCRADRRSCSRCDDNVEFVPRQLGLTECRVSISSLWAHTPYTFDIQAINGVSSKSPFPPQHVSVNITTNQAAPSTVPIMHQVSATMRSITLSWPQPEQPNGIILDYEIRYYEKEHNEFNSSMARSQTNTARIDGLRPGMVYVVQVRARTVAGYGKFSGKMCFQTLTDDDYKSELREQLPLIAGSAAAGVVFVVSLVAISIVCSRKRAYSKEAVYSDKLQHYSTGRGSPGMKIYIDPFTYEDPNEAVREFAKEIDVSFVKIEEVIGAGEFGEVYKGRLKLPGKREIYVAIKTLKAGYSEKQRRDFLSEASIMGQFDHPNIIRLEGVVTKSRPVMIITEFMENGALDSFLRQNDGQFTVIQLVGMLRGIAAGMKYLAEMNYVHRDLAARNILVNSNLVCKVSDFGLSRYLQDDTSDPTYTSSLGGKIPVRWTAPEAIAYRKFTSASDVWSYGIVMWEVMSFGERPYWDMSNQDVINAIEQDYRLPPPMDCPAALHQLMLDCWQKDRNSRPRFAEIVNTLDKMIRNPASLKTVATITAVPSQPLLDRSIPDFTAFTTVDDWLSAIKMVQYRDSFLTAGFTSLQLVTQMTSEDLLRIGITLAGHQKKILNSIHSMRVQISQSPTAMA

Row | Sequence | SH2 binding enrichment [14] | SH2 binding enrichment [15] | SH2 binding enrichment [16] | phosphorylation enrichment [1] | phosphorylation enrichment [2] | phosphorylation enrichment [3] | phosphorylation enrichment [4] | phosphorylation enrichment [5] | phosphorylation enrichment [6] | phosphorylation enrichment [7] | phosphorylation enrichment [8] | phosphorylation enrichment [9] | phosphorylation enrichment [10] | phosphorylation enrichment [11] | phosphorylation enrichment [12] | phosphorylation enrichment [13]
1 | IGEGTSGVVYK [CDK2_Y15_Y15S] | 0.639 | 0.562 | 0.361 | 0.574 | 0.374 | 0.319 | 0.299 | 0.426 | 0.339 | 0.616 | 0.28 | 0.306 | 0.494 | 0.274 | 0.5 | 0.29
2 | IGERTYGQVFK [CDK13_Y716_G714R_YF] | 0.857 | 0.754 | 0.519 | 0.62 | 0.468 | 0.557 | 0.368 | 0.482 | 0.456 | 0.905 | 7.52 | 3.7 | 0.495 | 0.4 | 0.474 | 5.22
3 | IGMFSYVMLAS [GGCX_Y301] | 0.841 | 0.604 | 0.424 | 1.21 | 0.649 | 0.611 | 0.598 | 0.851 | 0.562 | 1.56 | 0.444 | 0.548 | 1.57 | 0.477 | 0.997 | 0.512
4 | IHFAIYFLKYS [ARMC9_Y107_L108F] | 1.18 | 1.22 | 1.11 | 1.21 | 0.789 | 0.718 | 0.666 | 1.01 | 0.586 | 1.41 | 0.723 | 0.787 | 1.73 | 0.529 | 1.09 | 0.585
5 | IHHIDYYKETT [FGFR1_Y653_K656E] | 0.808 | 0.635 | 1.08 | 0.694 | 0.594 | 0.653 | 0.76 | 0.891 | 0.396 | 1.05 | 0.549 | 0.471 | 0.513 | 0.491 | 0.442 | 0.409
6 | IKAGAYDFPSP [CAMK2A_Y230] | 1.03 | 0.687 | 4.16 | 0.811 | 0.362 | 0.416 | 0.397 | 0.462 | 1.43 | 0.708 | 0.747 | 0.419 | 0.548 | 4.85 | 0.551 | 0.485
7 | ILTLKYPIERG [ACTA1_Y71_H75R] | 0.901 | 1.01 | 0.691 | 0.669 | 0.542 | 0.663 | 0.572 | 0.655 | 0.407 | 0.812 | 0.554 | 0.49 | 0.675 | 0.442 | 0.581 | 0.479
8 | INNIDYFKNTT [FGFR2_Y656_K659N_YF] | 0.81 | 0.692 | 0.36 | 0.471 | 0.374 | 0.327 | 0.377 | 0.474 | 0.317 | 0.687 | 0.393 | 0.401 | 0.463 | 0.408 | 0.421 | 0.301
9 | INNIDYYKNTT [FGFR2_Y656_K659N] | 1.22 | 0.793 | 0.662 | 0.724 | 0.392 | 0.451 | 0.535 | 0.538 | 0.359 | 0.708 | 0.495 | 0.462 | 0.59 | 0.428 | 0.574 | 0.378
10 | INSLKYAFNVS [EIF2B5_Y583_I587V_YF] | 0.705 | 0.352 | 0.379 | 0.77 | 0.443 | 0.43 | 0.44 | 0.584 | 0.452 | 0.85 | 0.478 | 0.51 | 0.771 | 0.447 | 0.593 | 0.464

Continued, in another order:

Row | SH2 binding enrichment [14] | SH2 binding enrichment [15] | SH2 binding enrichment [16] | Sequence | phosphorylation enrichment [1] | phosphorylation enrichment [2] | phosphorylation enrichment [3] | phosphorylation enrichment [4] | phosphorylation enrichment [5] | phosphorylation enrichment [6] | phosphorylation enrichment [7] | phosphorylation enrichment [8] | phosphorylation enrichment [9] | phosphorylation enrichment [10] | phosphorylation enrichment [11] | phosphorylation enrichment [12] | phosphorylation enrichment [13]
11 | 0.808 | 0.862 | 0.9 | HTEGEYSSLEH [IDH3B_Y171_Q166H] | 1.85 | 1.44 | 1.28 | 0.793 | 0.785 | 0.791 | 1.09 | 1.46 | 1.24 | 0.828 | 0.764 | 0.97 | 1.02
12 | 0.673 | 0.89 | 0.703 | IDAICYFRMEN [NPHS2_Y194_YF] | 1.26 | 0.692 | 0.623 | 0.656 | 0.949 | 0.484 | 1.59 | 0.572 | 0.612 | 2.44 | 0.556 | 0.974 | 0.613
13 | 1.07 | 0.887 | 0.66 | IGSQRYQLGVR [RB1_Y446_K447Q] | 0.439 | 0.315 | 0.303 | 0.346 | 0.388 | 0.403 | 0.534 | 0.365 | 0.34 | 0.413 | 0.385 | 0.451 | 0.343
14 | 0.867 | 0.88 | 0.938 | IGVGSYSVCKR [RPS6KA3_Y433] | 0.716 | 0.369 | 0.412 | 0.354 | 0.496 | 0.385 | 0.878 | 0.317 | 0.383 | 0.618 | 0.445 | 0.53 | 0.362
15 | 1.41 | 1.28 | 1.09 | IIAVHYVLEES [RYR2_Y4559] | 1 | 0.565 | 0.628 | 0.557 | 0.626 | 0.501 | 2.04 | 0.457 | 0.516 | 0.963 | 0.484 | 0.676 | 0.488
16 | 0.899 | 0.637 | 0.466 | ILGRTHFVNHE [NEDD4_Y627_Y627H_YF] | 0.633 | 0.471 | 0.535 | 0.397 | 0.559 | 0.457 | 0.707 | 0.476 | 0.451 | 0.485 | 0.423 | 0.5 | 0.377
